Drawing on patent US20090291088A1, “THERAPEUTIC COMBINATIONS OF ANTI-IGF-1R ANTIBODIES AND OTHER COMPOUNDS” (Biogen Idec MA Inc., priority 2008, published 2009), this text covers percent competition (relative to self-competition), EC50 (read off the curve) and IC50 (read off the curve) for one substance.

For experiment [1], the target named is human IGF-1R(1-903)-Fc (human) (UniProt P08069). The experiment is described as follows: ELISA on hIGF-1R-Fc, competitor Zenon-labelled αIR3. (In general: In an ELISA, binding on a coated surface is turned into a signal by an enzyme label.)
Experiment [2] shares this target. The experiment is described as follows: ELISA on hIGF-1R-Fc, competitor biotinylated M14-G11.
Experiment [3] has as its target human IGF-1R(1-902)-His10 (human) (UniProt P08069). The experiment is described as follows: ELISA, plate coated with rh-IGF-1R, bound antibody detected with anti-mouse IgG Fc-HRP.
In experiment [4] the target is human IGF-1R(1-903)-Fc (human) (UniProt P08069). Put plainly: competition ELISA: biotinylated hIGF-1R-Fc on streptavidin plate, 320 nM human IGF-1 His, detection with anti-His-HRP; blocked ligand human IGF-1 His.

With αIR3 (antibody), the percent competition (relative to self-competition) in experiment [1] and in experiment [2] was 90 to 100% each time. Further, in experiment [3], the concentration giving a half-maximal response (EC50 (read off the curve)) (usually the concentration that produces a half-maximal response) turned out to be 0.2 nM. Besides, in experiment [4], the IC50 (read off the curve) came to 5 nM.
